By IC50 is commonly meant the concentration that gives 50% inhibition.

Non-standard residues stand in square brackets, D forms with d. *: point of attachment. Biotin = O=C1N[C@H]2[C@H](CS[C@H]2CCCCC(=O)*)N1; pT = C[C@@H](OP(=O)(O)O)[C@H](N)C(=O)O

We go through one molecule from paper PMC6274716.

Among the targets are FHA variant B3 (yeast); FHA variant E1 (yeast); FHA variant H11 (yeast).
What all share (experiment): ELISA; competition: FHA clone binding to immobilized phosphorylated Akt1 peptide in the presence of free phosphorylated peptide; IC50
For assay [1], the target named is FHA variant E12 (Akt1-pTBD) (yeast).

Regarding Biotin-KDGATMK[pT]FCGTPEY-NH2 (not fully specified (residue 12)) [Akt1-pT308 peptide], the IC50 with FHA variant B3 (yeast) was 100000 nM; in the assay with FHA variant E1 (yeast), 1950 nM; in assay [1] it was 45 nM; with FHA variant H11 (yeast), 90 nM.
